T1: human full-length B7H3 expressed on MCF-7 cells (human, UniProt Q5ZPR3 29-534)
T1 sequence: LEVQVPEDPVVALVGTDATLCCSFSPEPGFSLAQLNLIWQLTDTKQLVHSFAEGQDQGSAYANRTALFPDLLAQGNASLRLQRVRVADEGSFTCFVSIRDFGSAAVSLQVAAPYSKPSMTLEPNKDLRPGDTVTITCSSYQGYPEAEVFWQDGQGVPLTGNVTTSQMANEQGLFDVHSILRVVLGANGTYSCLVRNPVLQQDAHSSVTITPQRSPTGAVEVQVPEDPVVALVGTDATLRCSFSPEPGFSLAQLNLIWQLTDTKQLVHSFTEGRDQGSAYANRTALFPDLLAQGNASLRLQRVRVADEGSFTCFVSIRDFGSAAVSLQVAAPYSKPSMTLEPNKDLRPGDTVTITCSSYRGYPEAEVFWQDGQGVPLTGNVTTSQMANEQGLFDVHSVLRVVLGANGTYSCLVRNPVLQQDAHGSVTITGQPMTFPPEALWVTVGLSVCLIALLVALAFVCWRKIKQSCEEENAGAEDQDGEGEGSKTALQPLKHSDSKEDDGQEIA

T2: human 4IgB7H3 extracellular domain, 6xHis (human, UniProt Q5ZPR3 29-461)
T2 construct: range 29-461; Made in house in Expi293F cells; 47.8 kDa used in the SPR calculation; also called analyte human 4IgB7H3
T2 sequence: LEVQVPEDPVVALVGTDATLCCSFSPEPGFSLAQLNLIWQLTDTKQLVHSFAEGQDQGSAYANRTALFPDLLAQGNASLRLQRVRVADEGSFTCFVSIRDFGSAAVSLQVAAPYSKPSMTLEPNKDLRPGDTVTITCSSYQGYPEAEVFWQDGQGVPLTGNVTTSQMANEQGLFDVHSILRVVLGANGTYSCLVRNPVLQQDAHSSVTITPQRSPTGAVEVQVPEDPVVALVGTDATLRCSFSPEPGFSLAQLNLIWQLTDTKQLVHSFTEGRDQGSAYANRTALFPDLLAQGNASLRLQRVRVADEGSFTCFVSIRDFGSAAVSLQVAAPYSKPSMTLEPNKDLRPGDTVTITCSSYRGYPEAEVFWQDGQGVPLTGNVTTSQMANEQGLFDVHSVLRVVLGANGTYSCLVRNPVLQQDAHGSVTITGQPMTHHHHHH

T3: Human B7-H3/CD276 protein, His tag (2IgB7H3) (human, UniProt Q5ZPR3-2 29-245)
T3 construct: Bought protein; 25.2 kDa used in the SPR calculation; also called human 2IgB7H3; ACRO B73-H52E2; not shown: His tag
T3 sequence (looked up): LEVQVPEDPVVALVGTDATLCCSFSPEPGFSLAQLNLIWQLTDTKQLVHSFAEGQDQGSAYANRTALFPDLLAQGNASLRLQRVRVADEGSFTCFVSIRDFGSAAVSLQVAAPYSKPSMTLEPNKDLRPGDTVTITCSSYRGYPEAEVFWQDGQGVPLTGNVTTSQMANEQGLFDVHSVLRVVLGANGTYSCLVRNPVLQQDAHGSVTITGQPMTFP

B1: W301088-1.145.16-z3-p1-uIgG1KV320 (antibody, V domains shown)
VH: QVQLQESGPGLVKPSQTLSLTCTVTDYSITGDYAWNWIRQHPGKGLEWIGYISYSGSTSYNPSLQSRVTISRDTSKNQFSLKLSSVTAADTAVYFCARSLGRRWYFVVWGQGTTVTVSS
VL: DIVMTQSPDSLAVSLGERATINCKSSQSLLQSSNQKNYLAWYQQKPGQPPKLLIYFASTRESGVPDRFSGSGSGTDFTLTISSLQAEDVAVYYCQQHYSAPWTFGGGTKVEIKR
notes: Humanized, PTM-removed (VL N027dQ) human IgG1 LALA kappa antibody; also called WBP301088; W301088-z3-p1
B2: W301088-1.145.16-xIgG1KV320 (antibody, V domains shown)
VH: DVQLQESGPGLVKPSQSLSLTCTVTDYSITGDYAWNWIRQFPGNKLEWMGYISYSGSTSYNPSLQSRISITRDTSKNQFFLQLNSVTSEDTATYFCARSLGRRWYFVVWGAGTTVTVSA
VL: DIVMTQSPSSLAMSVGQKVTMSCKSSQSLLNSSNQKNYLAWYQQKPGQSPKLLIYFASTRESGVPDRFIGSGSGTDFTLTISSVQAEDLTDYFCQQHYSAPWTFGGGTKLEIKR
B3: Enoblituzumab (MacroGenics) (antibody, V domains shown)
VH: EVQLVESGGGLVQPGGSLRLSCAASGFTFSSFGMHWVRQAPGKGLEWVAYISSDSSAIYYADTVKGRFTISRDNAKNSLYLQMNSLRDEDTAVYYCGRGRENIYYGSRLDYWGQGTTVTVSS
VL: DIQLTQSPSFLSASVGDRVTITCKASQNVDTNVAWYQQKPGKAPKALIYSASYRYSGVPSRFSGSGSGTDFTLTISSLQPEDFATYYCQQYNNYPFTFGQGTKLEIKR

What follows are binders tested against T1, human full-length B7H3 expressed on … (assay: cell-based or functional assay).

Row | Binder | Antibody internalization EC50 (nM), MCF-7 cells, high-content imaging [nM]
1 | B1 | 0.44
2 | B2 | 0.51
3 | B3 | 1.95

Each binder was assayed against T1, human full-length B7H3 expressed on … (assay: flow cytometry (FACS) on MCF-7 cells expressing human full-length B7H3).
Experimental: FACS was used to detect the binding of antibodies to human B7H3. This method allows quantitative analysis and identification of specific molecules expressed on the surface of living cells. Unlabeled cells were used as a control to set a threshold before the assay, and the percentage change for each group that exceeded the fluorescence intensity threshold was analyzed. MCF-7 cells expressing human full-length B7H3 (1×10⁵ cells/well) were incubated with various concentrations of antibodies (3.16-fold serially diluted with 1×DPBS/1% BSA from 50 nM to 0.0005 nM) in a volume of 100 μL/well in a refrigerator set to 4° C. for 1 h. Anti-human B7H3 reference antibody enoblituzumab (MacroGeneics) was used as a positive control. Human IgG1 isotype antibody was used as a negative control. After washing the cells with 1×DPBS/1% BSA, Alexa 647 goat anti-human antibody (diluted in a 1:500 ratio in 1×DPBS/1% BSA) was added. The cells were incubated in a refrigerator set to 4° C. for 0.5 h in the dark. The mean fluorescence intensity (MFI) of the cells was measured by a flow cytometry and analyzed by FlowJo. EC₅₀ values were calculated by four-parameter non-linear regression analysis using GraphPad Prism 7 software.

Row | Binder | EC50 [nM]
4 | B1 | 1.08
5 | B2 | 1.16
6 | B3 | 2.49

Each binder was assayed against T2, human 4IgB7H3 extracellular domain, … (assay: SPR (Biacore 8K), antibody captured on anti-human Fc IgG, human 4IgB7H3 as analyte, 1:1 model).
Experimental: (§1) The affinity of antibodies for human 4IgB7H3 was determined using surface plasmon resonance (SPR). The affinity of antibodies for human 4IgB7H3 was determined by Biacore 8K. An activator was prepared by mixing 400 mM EDC and 100 mM NHS (GE) immediately prior to injection into the channel. The CMS sensor chip was activated for 420 seconds with the activator. Goat anti-human Fc IgG (30 μg/mL in 10 mM NaAc, pH 4.5) was then injected into the channel at a flow rate of 10 μL/min for 420 seconds. The chip was deactivated by 1 M ethanolamine hydrochloric acid. The antibodies diluted in running buffer (1×HBS-EP+) were injected into the channel at a flow rate of 10 μL/min for 30 seconds. […] Glycine (10 mM, pH 1.5) was injected as regeneration buffer after the dissociation phase.
The sensorgrams for the reference channel and the buffer channel were subtracted from the test sensorgrams. The experimental data were fitted with a 1:1 binding model. The molecular weight of the human 4IgB7H3 used in the calculation was 47.8 kDa.
(§2) The experimental data were fitted by a 1:1 binding model bundled with the Biacore 8K evaluation software.

Row | Binder | Kd [nM] | koff [s⁻¹] | kon [M⁻¹ s⁻¹]
7 | B1 | 0.0708 | 4.65e-05 | 657000
8 | B2 | 0.0515 | 3.39e-05 | 657000
9 | B3 | 1.02 | 0.000126 | 124000

What follows are binders tested against T3, Human B7-H3/CD276 protein, His tag … (assay: SPR (Biacore 8K), antibody captured on anti-human Fc IgG, human 2IgB7H3 as analyte, 1:1 model).
Experimental: as §1, with “2IgB7H3” for “4IgB7H3”
The sensorgrams for the reference channel and the buffer channel were subtracted from the test sensorgrams. The experimental data were fitted with a 1:1 binding model. The molecular weight of the human 2IgB7H3 used in the calculation was 25.2 kDa.
as §2

Row | Binder | Kd [nM] | koff [s⁻¹] | kon [M⁻¹ s⁻¹]
10 | B1 | 46.4 | 0.0141 | 303000
11 | B2 | 57.7 | 0.0136 | 235000
12 | B3 | 261 | 0.0168 | 64400

— US20240148892A1 (DUALITY BIOLOGICS SUZHOU, published 2024)
